Measurements reported in article PMC9605868.

Target: AP-1σ1 (cells' own, or HA-AP1S1) (UniProt P61966)
Assay: anti-Flag IP, western blot for AP-1
Details: reference: wild type; sites S366

## STING (from UniProt Q86WV6) S366A
  binding against the reference: weaker
